Test results reported in patent US8481032B2, “Lipocalin-2 antibodies for methods of treatment” (The University of Hong Kong, priority 2006, dated 2013).

Tests used:
T2DM patients = assay: Rosiglitazone treatment of T2DM patients: serum lipocalin-2 and metabolic parameters; format: in vivo, human; conditions: 32 T2DM patients, rosiglitazone 4 mg twice daily, 8 weeks
Experimental: The affinity-purified anti-human or anti-murine lipocalin-2 IgG was biotinylated with a kit from Pierce and used as the detection antibodies. The unlabeled anti-human or anti-murine lipocalin-2 IgG was used for coating a 96-well microtiter plate overnight at 4° C. Human or mouse serum was diluted (1:50) into PBS, and 100 μl of the diluted samples or recombinant standards were applied to each well and incubated at 37° C. for 1 h. The plates were washed three times and then incubated with 100 μl of the detection antibody for another 2 h. After washing for another three times with PBS, the wells were incubated with streptavidin-conjugated horseradish peroxidase for 1 h and subsequently reacted with tetramethyl-benzidine reagent for 15 min. A total of 100 μl of 2 M H2SO4 was added to each well to stop the reaction, and the absorbance at 450 nm was measured. The intra- and inter-assay coefficients of variance were determined by measuring five serum samples in a total of six independent assays with duplicate determinations.
The effect of rosiglitazone on serum levels of lipocalin-2 was investigated in 32 T2DM patients (see Example 2) treated with this drug (4 mg twice daily) for 8 weeks.

C57 mice = assay: Chronic treatment of C57 mice with recombinant lipocalin-2: body weight, food intake, metabolic parameters, ipGTT and ITT; format: in vivo, mouse
Experimental: Fasting (16 hr) plasma glucose levels and triglyceride (TG) concentrations were measured by using a Glucose (GO) assay kit (Sigma) and Triglyceride GPO reagent (Pointe Scientific Inc., Lincoln Park, Mich., USA) respectively. Fasting serum insulin concentrations were quantified by using the commercial ELISA kits from Mercodia AB (Uppsala, Sweden). Serum total cholesterol and free fatty acids (FFAs) were analyzed by using the kits from Wako (Richmond, Va., USA) and Roche Diagnostics respectively. TG contents in liver and soleus muscle were analyzed as described elsewhere (Ellis, B. A et al., Am J Physiol Endocrinol Metab. 279:E554-560 (2000); Xu, A., et al. J Clin Invest 112:91-100 (2003)).
For ipGTT, overnight fasted mice (16 hr) were given a glucose load by intraperitoneal injection (1 g glucose/kg body weight). For ITT, mice were starved for 6 h, and then intraperitonally injected with insulin (1 U/kg body weight). Plasma glucose levels were measured at different time points as indicated.
(§1) To evaluate the effect of lipocalin-2 on glucose homeostasis and insulin sensitivity, normal C57 mice were treated with murine lipocalin-2 by intraperitoneal injection of the recombinant protein (5 mg protein/kg body weight, twice a day at 12 hr intervals).

[1] = tested on: genes involved in glucose and lipid metabolism in skeletal muscle and liver; assay: mRNA expression of genes involved in glucose and lipid metabolism in skeletal muscle and liver of lipocalin-2-treated mice; format: in vivo, mouse; conditions: versus vehicle
Experimental: Total RNA was isolated from mouse liver, epididymal adipose tissue and soleus muscle using the RNeasy kit (Qiagen). Subsequently, mRNA was reverse transcribed into cDNA using the oligo-dT primer (Roche). The relative gene abundance was quantified by Taqman real-time PCR using the pre-developed assay kits (Applied Biosystems, Foster city, CA). The reactions were performed on the ABI 7000 sequence detection system.
as §1
The effects of lipocalin-2 on mRNA expression of several genes involved in glucose and lipid metabolism in skeletal muscle and liver were investigated (FIGS. 4A-4B).

L6 myotubes [2] = assay: Fatty acid uptake, fatty acid oxidation and triglyceride accumulation in L6 myotubes; format: cell-based, rat
Excerpt: FIG. 5A is a bar graph of […] ^3H-palmitate uptake (fold over control) in differentiated L6 myotubes treated with the indicated concentrations of lipocalin-2 or vehicle for 48 hr. FIG. 5B is a bar graph of ^14C-oleate oxidation (fold over control) in differentiated L6 myotubes treated with the indicated concentrations of lipocalin-2 or vehicle for 48 hr. Fatty acid oxidation was quantified by the production of ^14CO2 from [1-^14C]oleate. * P<0.05; ** P<0.01 versus untreated cells.
(§2) Rat L6 skeletal myoblasts were grown in α-minimum essential medium (αMEM) containing 10% (v/v) FBS and 1% antibiotic solution (100 units/ml penicillin, 100 μg/ml streptomycin, 250 ng/ml amphotericin B) in a humidified atmosphere of 95% air and 5% CO2 at 37° C. For differentiation to myotubes, cells were cultured in αMEM containing 2% (v/v) FBS for 5-7 days.
[^3H]-palmitic acid (Amersham, Quebec, Canada) was used to determine fatty acid uptake as previously described (Bastie, C. C., et al. Diabetes, 53:2209-2216 (2004)). with slight modifications. […] After treatments, culture medium was removed and cells washed twice with wash buffer (140 mM NaCl, 20 mM HEPES-Na, 2.5 mM MgSO4, 1 mM CaCl2, 5 mM KCl pH 7.4, 0.1% defatted albumin) and once with HEPES buffer. Cells were subsequently incubated with transport solution (10 μM defatted albumin, 0.5 μCi/ml [^3H]-palmitic acid; FA:BSA ratio=2) for 1 minute at room temperature. Then the reaction was stopped by washing with pre-cold stop buffer (140 mM NaCl, 20 mM HEPES-Na, 2.5 mM MgSO4, 1 mM CaCl2, 5 mM KCl pH 7.4) Non-specific uptake was measured in the presence of excess palmitate (2 mM) and subtracted from all other values. Cells were then lysed with 1 M KOH and aliquots were transferred to scintillation vials for ^3H radioactivity counting.

L6 myotubes [3] = assay: 2-deoxyglucose uptake in L6 myotubes; format: cell-based, rat
Experimental: FIG. 6 is a bar graph of 2-deoxyglucose uptake (arbitrary units) in L6 myotubes treated without or with indicated concentrations of lipocalin-2 for 48 hr, and then stimulated without or with insulin for another 20 min. The rate of glucose uptake was measured by uptake of 2-deoxy-D-[^3H]glucose. * P<0.05 versus untreated cells; # P<0.05 versus cells treated with insulin alone (n=4-6).
as §2
Cells were incubated with various concentration of lipocalin-2 for 20 h, subsequently serum-starved in the continued presence of lipocalin-2 for the final 4 h in 24-well plates prior to further treatment. Cells were then washed twice with PBS and treated with insulin or vehicle for 15 min. After treatments, glucose uptake was determined. Briefly, cells were incubated in transport solution (140 mM NaCl, 20 mM HEPES-Na, 2.5 mM MgSO4, 1 mM CaCl2, 5 mM KCl and 0.5 μCi/ml 2-deoxy-D-[^3H]glucose, pH 7.4) for 5 min at room temperature. Nonspecific uptake was measured in the presence of cytochalasin B (10 μM). Cells were then lysed with 1 M KOH, and aliquots were transferred to scintillation vials for ^3H radioactivity counting.

[4] = fasting, recombinant lipocalin-2 5 mg/kg i.p. twice a day, 4 weeks
[5] = recombinant lipocalin-2 5 mg/kg i.p. twice a day, 4 weeks
[6] = liver tissue of lipocalin-2-treated mice
[7] = skeletal muscle of lipocalin-2-treated mice
[8] = L6 myotubes, acute treatment within 2 hr (data not shown)

For `CN(CCOc1ccc(CC2SC(=O)NC2=O)cc1)c1ccccn1` (centres unmarked) [rosiglitazone], the “Body Mass Index” value (T2DM patients) was 25.5 ± 3.6 Kg/m^2, the “Fasting Glucose” value (T2DM patients) was 6.8 ± 1.2 mM and the “Fasting Insulin” value (T2DM patients) was 7.9 ± 3.5 mIU/l. The HOMA-IR (T2DM patients) was 2.4 ± 1.2 and the “Lipocalin-2 (serum level)” value (T2DM patients) was 61.9 ± 25.9 ng/mL.

B1: Lipocalin-2: recombinant murine lipocalin-2 expressed in BL21 cells, His6 tag and endotoxin removed (protein)
chain: QDSTQNLIPAPSLLTVPLQPDFRSDQFRGRWYVVGLAGNAVQKKTEGSFTMYSTIYELQENNSYNVTSILVRDQDQGCRYWIRTFVPSSRAGQFTLGNMHRYPQVQSYNVQVATTDYNQFAMVFFRKTSENKQYFKITLYGRTKELSPELKERFTRFAKSLGLKDDNIIFSVPTDQCIDN
modifications: left off: small tags and cut ends
notes: recombinant murine lipocalin-2 expressed in BL21 cells, His6 tag and endotoxin removed
In the case of B1, the “daily average of serum lipocalin-2 levels, higher than that of the endogenous protein” value (C57 mice; 5 mg protein/kg i.p. twice a day at 12 hr intervals) is reported as 2.2-3.5 folds, the Plasma glucose (C57 mice; [4]) is reported as 137.4 ± 11.6 mg/dL and the Plasma insulin (C57 mice; [4]) is reported as 1.5 ± 0.04 ng/mL. The “Serum TG” value (C57 mice; [4]) was 93.9 ± 8.9 mg/dL, the “glucose tolerance (ipGTT)” value (C57 mice; long-term lipocalin-2 treatment, day 24, 1 g glucose/kg i.p.) was “induced glucose intolerance” and the “insulin sensitivity (ITT)” value (C57 mice; long-term lipocalin-2 treatment, day 26, insulin 1 U/kg i.p.) was “decreased insulin sensitivity”. For the same molecule, the “Serum FFAs” value (C57 mice; [5]) was 0.72 ± 0.08 mmol/L, the Serum adiponectin (C57 mice; [5]) was 7.9 ± 1.8 µg/mL and the Serum total cholesterol (C57 mice; [5]) was 101.4 ± 8.8 mg/dL. The “TG contents in liver” value (C57 mice; [5]) was 6.9 ± 0.8 mg/g tissue, the “TG contents in muscle” value (C57 mice; [5]) was 7.3 ± 0.8 mg/g tissue and the “expression of glucose-6-phosphatase (G6P)” value [1, 6] was “modest, but significant increase”. For the same molecule, the “expression of phosphoenolpyruvate carboxylase (PEPCK)” value [1, 6] was “modest, but significant increase”, the “expression of several genes involved in fatty acid transport, synthesis and oxidation” value [1, 6] was “did not modulate” and the “expression of GLUT1” value [1, 7] was “decreased”. For the same molecule, the “expression of GLUT4, acetyl CoA carboxylase (ACO) and several other fatty acid transport proteins (FATP2, 3 and 5, and CD36)” value [1, 7] was “did not affect”, the “expression of acyl-CoA oxidase” value [1, 7] was “inhibited” and the “expression of uncoupling protein 2 (UCP2)” value [1, 7] was “inhibited”. The “steady-state mRNA level of fatty acid transport protein 1 (FATP-1)” value [1, 7] was “significantly increased”, the “steady-state mRNA level of fatty acid transport protein 4 (FATP-4)” value [1, 7] was “significantly increased” and the “triglyceride accumulation, increase compared with untreated cells” value (L6 myotubes [2]; L6 myotubes at 72 hr following lipocalin-2 treatment, n=4, p<0.05) was 1.51±0.58 folds. The “fatty acid uptake and oxidation, acute treatment” value (L6 myotubes [2]; [8]) was “no obvious effects”, the fatty acid uptake (L6 myotubes [2]; L6 myotubes, prolonged incubation with lipocalin-2 (24 h and 48 h), 3H-palmitate) was “significant increase” and the “rate of fatty acid oxidation” value (L6 myotubes [2]; L6 myotubes, prolonged incubation with lipocalin-2 (24 h and 48 h), 14C-oleate) was “decrease”. The basal glucose uptake (L6 myotubes [3]; L6 myotubes at 48 hr after lipocalin-2 treatment) was “significantly decreased”, the “basal and insulin-stimulated glucose uptake, acute treatment” value (L6 myotubes [3]; [8]) was “no obvious effects” and the “magnitude of insulin-stimulated increase in glucose uptake, versus untreated cells” value (L6 myotubes [3]; L6 myotubes, lipocalin-2-treated, not statistically significant) was “slightly lower”.
